Experimental data reported in the supplement of paper PMC7877785.
± gives the uncertainty stated by the source.

Experiment: self-splicing fitness, log relative to wild type (ln ratio); higher = more splicing; Tetrahymena group I intron in knt gene, E. coli kanamycin selection, DiMSum; sequences stand for … in CUCUCU…GGAGGGAAAAGUUAUCAGGCAUGCACCUGGUAGCUAGUCUUUAAACCAAUAGAUUGCAUCGGUUUAAAAGGCAAGACCGUCAAAUUGCGGGAAAGGGGUCAACAGCCGUUCAGUACCAAGUCUCAGGGGAAACUUUGAGAUGGCCUUGCAAAGGGUAUGGUAAUAAGCUGACGGACAUGGUCCUAACCACGCAGCCAAGUCCUAAGUCAACAGAUCUUCUGUUGAUAUGGAUGCAGUUCACAGACUAAAUGUCGGUCGGGGAAGAUGUAUUCUUCUCAUAAGAUAUAGUCGGACCUCUCCUUAAUGGGAGCUAGCGGAUGAAGUGAUGCAACACUGGAGCCGCUGGGAACUAAUUUGUAUGCGAAAGUAUAUUGAUUAGUUUUGGAGUACUCGUGGUCG
Method in brief: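 Fitness was computed with DiMSum as the error-weighted combination of replicate fold changes, kanamycin versus none, each normalised to wild type. The library randomised all eight intron nucleotides of the P1ex region, with the intron placed in the knt kanamycin-resistance gene on pET-22b(+) in E. coli BL21(DE3). Six replicate transformations were grown overnight at 37°C or 30°C on LB agar with or without 25 μg/mL kanamycin, plus 100 μg/mL carbenicillin, 50 μM IPTG and 0.2% rhamnose. Pooled colonies were amplicon-sequenced on an Illumina HiSeq 2500.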

Sequence | self-splicing fitness (ln) (30 °C) | self-splicing fitness (ln) (37 °C)
CAAUAGCAAUAUUACGCCAC | -2.84 ± 0.28 | 
CAAUAGCAAUAUUACGCGAG | -1.76 ± 0.086 | -0.754 ± 0.096
CAAUAGCAAUAUUACGCGGU | -3.88 ± 0.19 | -3.12 ± 0.2
CAAUAGCAAUAUUACGCUCA | -0.892 ± 0.11 | -1.73 ± 0.14
CAAUAGCAAUAUUACGGACU | -4.49 ± 0.34 | -2.11 ± 0.23
CAAUAGCAAUAUUACGGAGG | -1.16 ± 0.07 | -1.26 ± 0.11
CAAUAGCAAUAUUACGGAGU | -4.14 ± 0.43 | -2.04 ± 0.25
CAAUAGCAAUAUUACGGGAG | -2.53 ± 0.085 | -2 ± 0.09
CAAUAGCAAUAUUACGGUAA | -2.8 ± 0.14 | -2.81 ± 0.18
CAAUAGCAAUAUUACGGUUC | -3.3 ± 0.48 | 
CAAUAGCAAUAUUACGUACA | -3.18 ± 0.4 | -1.82 ± 0.25
CAAUAGCAAUAUUACGUGGC | -3.53 ± 0.16 | -2.72 ± 0.2
CACAAGCAAUAUUACGAACG | -0.561 ± 0.055 | 0.286 ± 0.079
CACAAGCAAUAUUACGAAGA | -2.71 ± 0.18 | -2.36 ± 0.2
CACAAGCAAUAUUACGACAC | -3.12 ± 0.11 | -2.59 ± 0.12
CACAAGCAAUAUUACGACAU | -3.32 ± 0.017 | -1.99 ± 0.033
CACAAGCAAUAUUACGACCA | -1.19 ± 0.16 | -1.05 ± 0.16
CACAAGCAAUAUUACGAGAA | -2.29 ± 0.31 | -2.41 ± 0.34
CACAAGCAAUAUUACGAGCG | -0.656 ± 0.099 | 0.331 ± 0.1
CACAAGCAAUAUUACGAGUG | -4.41 ± 0.15 | -2.02 ± 0.12
CACAAGCAAUAUUACGAUGC | -4.12 ± 0.31 | -2.69 ± 0.27
CACAAGCAAUAUUACGCCAC |  | -1.43 ± 0.43
CACAAGCAAUAUUACGCCGC | -2.66 ± 0.28 | -2.34 ± 0.37
CACAAGCAAUAUUACGCGCC | -3.41 ± 0.26 | -1.32 ± 0.16
CACAAGCAAUAUUACGCGUU | -2.55 ± 0.098 | -1.3 ± 0.091

Sequence | self-splicing fitness (ln) (30 °C) | self-splicing fitness (ln) (37 °C)
CACAAGCAAUAUUACGCUAU | -4.42 ± 0.26 | -1.58 ± 0.14
CACAAGCAAUAUUACGCUCU | -3.04 ± 0.24 | -1.38 ± 0.17
CACAAGCAAUAUUACGCUGA | -2.12 ± 0.12 | -1.72 ± 0.12
CACAAGCAAUAUUACGGCGA | -1.3 ± 0.092 | -0.406 ± 0.087
CACAAGCAAUAUUACGGCUG | -1.54 ± 0.072 | -0.213 ± 0.087
CACAAGCAAUAUUACGGCUU | -3.67 ± 0.19 | -2.98 ± 0.23
CACAAGCAAUAUUACGGGGA | -2.64 ± 0.11 | -1.69 ± 0.1
CACAAGCAAUAUUACGGUUA | -1.01 ± 0.076 | -0.918 ± 0.078
CACAAGCAAUAUUACGGUUG | -2.5 ± 0.1 | -1.59 ± 0.12
CACAAGCAAUAUUACGUAGG | -1.23 ± 0.056 | -0.693 ± 0.082
CACAAGCAAUAUUACGUAUA | -2.66 ± 0.13 | -2.67 ± 0.16
CACAAGCAAUAUUACGUCAC | -3.24 ± 0.19 | -2.62 ± 0.22
CACAAGCAAUAUUACGUCUA | -1.42 ± 0.087 | -1.26 ± 0.084
CACAAGCAAUAUUACGUUAU | -2.95 ± 0.098 | -2.7 ± 0.11
CACAAGCAAUAUUACGUUUC | -3.53 ± 0.19 | -1.8 ± 0.17
CACCAGCAAUAUUACGAACC | -3.66 ± 0.28 | -0.707 ± 0.25
CACCAGCAAUAUUACGAAGU | -3.79 ± 0.16 | -1.46 ± 0.11
CACCAGCAAUAUUACGAGGA | -2.74 ± 0.14 | -1.91 ± 0.13
CACCAGCAAUAUUACGAUUG | -0.914 ± 0.046 | -0.088 ± 0.072
CACCAGCAAUAUUACGCAGG | -3.09 ± 0.1 | -1.64 ± 0.1
CACCAGCAAUAUUACGCCAA | -2.95 ± 0.28 | -3.23 ± 0.3
CACCAGCAAUAUUACGCCCC | -3.28 ± 0.38 | 
CACCAGCAAUAUUACGCCUC | -3.14 ± 0.23 | -1.9 ± 0.2
CACCAGCAAUAUUACGCGCC | -2.68 ± 0.17 | -2.4 ± 0.2
CACCAGCAAUAUUACGCUUU | -3.8 ± 0.14 | -1.94 ± 0.093

Sequence | self-splicing fitness (ln) (30 °C) | self-splicing fitness (ln) (37 °C)
CACCAGCAAUAUUACGGACC | -2.62 ± 0.21 | -1.72 ± 0.21
CACCAGCAAUAUUACGGCAA | -1.68 ± 0.099 | -0.956 ± 0.1
CACCAGCAAUAUUACGGCGG | -0.993 ± 0.065 | -0.567 ± 0.079
CACCAGCAAUAUUACGGGAA | -1.05 ± 0.059 | -1.07 ± 0.075
CACCAGCAAUAUUACGUAAA | -3.49 ± 0.15 | -1.6 ± 0.11
CACCAGCAAUAUUACGUAGA | -1.46 ± 0.052 | -0.916 ± 0.064
CACCAGCAAUAUUACGUCGG | -1.36 ± 0.059 | -0.518 ± 0.072
CACCAGCAAUAUUACGUCUA | -2.84 ± 0.091 | -1.79 ± 0.091
CACCAGCAAUAUUACGUCUG | -1.55 ± 0.056 | -0.504 ± 0.07
CACCAGCAAUAUUACGUGAG | -3.8 ± 0.16 | -2.26 ± 0.14
CACCAGCAAUAUUACGUGGA | -3.55 ± 0.12 | -2.12 ± 0.09
CACGAGCAAUAUUACGAACG | -0.211 ± 0.12 | 0.033 ± 0.14
CACGAGCAAUAUUACGAGUC |  | -1.63 ± 0.29
CACGAGCAAUAUUACGAUCG | -1.14 ± 0.077 | -0.291 ± 0.083
CACGAGCAAUAUUACGCCCA | -1.81 ± 0.4 | -1.72 ± 0.28
CACGAGCAAUAUUACGCCGU | -3 ± 0.21 | -2.26 ± 0.18
CACGAGCAAUAUUACGCGAU | -3.23 ± 0.21 | -2.51 ± 0.41
CACGAGCAAUAUUACGCGCU | -4.22 ± 0.21 | -2.01 ± 0.19
CACGAGCAAUAUUACGCUAU | -2.42 ± 0.21 | -2.56 ± 0.28
CACGAGCAAUAUUACGCUGA | -3.57 ± 0.37 | -2.02 ± 0.3
CACGAGCAAUAUUACGCUGG | -3.66 ± 0.16 | -2.32 ± 0.16
CACGAGCAAUAUUACGCUUU | -3.71 ± 0.22 | -2.89 ± 0.2
CACGAGCAAUAUUACGGGCG | -0.98 ± 0.11 | -1.14 ± 0.15
CACGAGCAAUAUUACGGGCU | -4.17 ± 0.22 | -3.5 ± 0.46
CACGAGCAAUAUUACGGUCA | -4.22 ± 0.39 | -1.54 ± 0.16

Sequence | self-splicing fitness (ln) (30 °C) | self-splicing fitness (ln) (37 °C)
CACGAGCAAUAUUACGUAGC | -2.94 ± 0.24 | -3.31 ± 0.3
CACGAGCAAUAUUACGUAUC | -2.94 ± 0.38 | -2.81 ± 0.36
CACGAGCAAUAUUACGUAUU | -4.05 ± 0.17 | -2.48 ± 0.13
CACGAGCAAUAUUACGUCAC | -3.41 ± 0.2 | -3.18 ± 0.37
CACGAGCAAUAUUACGUGGA | -3.08 ± 0.17 | -2.2 ± 0.17
CACGAGCAAUAUUACGUGGC | -4.09 ± 0.37 | -2.13 ± 0.21
CACUAGCAAUAUUACGACCA | -1.18 ± 0.14 | -1.69 ± 0.21
CACUAGCAAUAUUACGAGCG | -0.458 ± 0.083 | 0.257 ± 0.086
CACUAGCAAUAUUACGAUCA | -2.46 ± 0.17 | -1.22 ± 0.16
CACUAGCAAUAUUACGAUCU | -3.56 ± 0.19 | -2.18 ± 0.18
CACUAGCAAUAUUACGCACC | -2.29 ± 0.18 | -0.458 ± 0.19
CACUAGCAAUAUUACGCGAU | -2.63 ± 0.23 | -2.12 ± 0.28
CACUAGCAAUAUUACGCUAC |  | -2.31 ± 0.25
CACUAGCAAUAUUACGGCGC | -2.98 ± 0.15 | -1.11 ± 0.15
CACUAGCAAUAUUACGGCGU | -1.8 ± 0.12 | -0.74 ± 0.11
CACUAGCAAUAUUACGGGAU | -4.27 ± 0.21 | -2.58 ± 0.15
CACUAGCAAUAUUACGGUAC | -3.09 ± 0.2 | -2.87 ± 0.19
CACUAGCAAUAUUACGGUAU | -3.41 ± 0.23 | -0.916 ± 0.13
CACUAGCAAUAUUACGGUGU | -3.65 ± 0.15 | -2.95 ± 0.21
CACUAGCAAUAUUACGUAUC | -3.43 ± 0.25 | -2.27 ± 0.19
CACUAGCAAUAUUACGUCAC | -4.12 ± 0.29 | -2.01 ± 0.21
CACUAGCAAUAUUACGUGAA | -3.83 ± 0.15 | -3.05 ± 0.18
